Measurements taken from article PMC10397247.

Legend:
Experiment in all cases: two-hybrid library CCmax;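 also: natural log of median RNA to DNA barcode read ratio; higher means stronger binding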
[1] = biological target: T1, 4H1636-AA
T1 chain: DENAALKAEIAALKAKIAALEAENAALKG

[2] = biological target: T2, 4H1867-AA; settings: mean of both orientations
T2 chain: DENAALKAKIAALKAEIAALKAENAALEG

[3] = biological target: T3, 4H2078-AA; settings: mean of both orientations
T3 chain: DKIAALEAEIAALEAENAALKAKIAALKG

[4] = biological target: T4, 4H2151-AA; settings: mean of both orientations
T4 chain: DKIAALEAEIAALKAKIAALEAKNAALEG

[5] = biological target: T5, 4H2165-AA; settings: mean of both orientations
T5 chain: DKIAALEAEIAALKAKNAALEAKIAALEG

[6] = biological target: T6, 4H2190-AA; settings: mean of both orientations
T6 chain: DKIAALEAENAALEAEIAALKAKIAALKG

[7] = biological target: T7, 4H2277-AA; settings: mean of both orientations
T7 chain: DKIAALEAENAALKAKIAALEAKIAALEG

[8] = biological target: T8, 4H234-AA; settings: mean of both orientations
T8 chain: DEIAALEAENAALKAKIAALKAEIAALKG

[9] = biological target: T9, 4H2354-AA; settings: mean of both orientations
T9 chain: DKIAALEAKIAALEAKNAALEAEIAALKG

[10] = biological target: T10, 4H2393-AA; settings: mean of both orientations
T10 chain: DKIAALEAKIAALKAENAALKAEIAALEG

[11] = biological target: T11, 4H2466-AA; settings: mean of both orientations
T11 chain: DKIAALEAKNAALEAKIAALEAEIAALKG

[12] = biological target: T12, 4H2505-AA; settings: mean of both orientations
T12 chain: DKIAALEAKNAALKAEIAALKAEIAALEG

[13] = biological target: T13, 4H2575-AA; settings: mean of both orientations
T13 chain: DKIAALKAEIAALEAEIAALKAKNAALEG

[14] = biological target: T14, 4H2617-AA; settings: mean of both orientations
T14 chain: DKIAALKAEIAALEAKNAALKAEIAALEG

[15] = biological target: T15, 4H2642-AA; settings: mean of both orientations
T15 chain: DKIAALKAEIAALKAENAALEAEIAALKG

[16] = biological target: T16, 4H2729-AA; settings: mean of both orientations
T16 chain: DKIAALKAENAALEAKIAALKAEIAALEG

[17] = biological target: T17, 4H2754-AA; settings: mean of both orientations
T17 chain: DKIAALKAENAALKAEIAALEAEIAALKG

[18] = biological target: T18, 4H2837-AA; settings: mean of both orientations
T18 chain: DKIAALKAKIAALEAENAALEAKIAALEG

[19] = biological target: T19, 4H2883-AA; settings: mean of both orientations
T19 chain: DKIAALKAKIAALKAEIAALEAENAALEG

[20] = biological target: T20, 4H2944-AA; settings: mean of both orientations
T20 chain: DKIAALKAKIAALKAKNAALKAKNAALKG

[21] = biological target: T21, 4H2949-AA; settings: mean of both orientations
T21 chain: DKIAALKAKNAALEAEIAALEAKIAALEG

[22] = biological target: T22, 4H3112-AA; settings: mean of both orientations
T22 chain: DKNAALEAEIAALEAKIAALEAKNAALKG

[23] = biological target: T23, 4H317-AA; settings: mean of both orientations
T23 chain: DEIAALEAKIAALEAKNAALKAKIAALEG

[24] = biological target: T24, 4H3343-AA; settings: mean of both orientations
T24 chain: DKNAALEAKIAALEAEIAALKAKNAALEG

[25] = biological target: T25, 4H335-AA; settings: mean of both orientations
T25 chain: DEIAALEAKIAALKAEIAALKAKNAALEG

[26] = biological target: T26, 4H342-AA; settings: mean of both orientations
T26 chain: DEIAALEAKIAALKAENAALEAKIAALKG

[27] = biological target: T27, 4H3427-AA; settings: mean of both orientations
T27 chain: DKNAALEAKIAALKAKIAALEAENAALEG

[28] = biological target: T28, 4H3606-AA; settings: mean of both orientations
T28 chain: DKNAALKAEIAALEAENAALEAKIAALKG

[29] = biological target: T29, 4H3627-AA; settings: mean of both orientations
T29 chain: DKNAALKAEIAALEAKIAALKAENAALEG

[30] = biological target: T30, 4H3655-AA; settings: mean of both orientations
T30 chain: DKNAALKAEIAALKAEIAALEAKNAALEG

[31] = biological target: T31, 4H3844-AA; settings: mean of both orientations
T31 chain: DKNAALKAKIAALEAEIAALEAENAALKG

[32] = biological target: T32, 4H3921-AA; settings: mean of both orientations
T32 chain: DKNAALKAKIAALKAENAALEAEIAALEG

[33] = biological target: T33, 4H429-AA; settings: mean of both orientations
T33 chain: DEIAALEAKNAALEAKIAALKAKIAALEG

[34] = biological target: T34, 4H454-AA; settings: mean of both orientations
T34 chain: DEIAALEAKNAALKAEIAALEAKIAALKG

[35] = biological target: T35, 4H48-AA; settings: mean of both orientations
T35 chain: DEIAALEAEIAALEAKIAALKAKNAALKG

[36] = biological target: T36, 4H566-AA; settings: mean of both orientations
T36 chain: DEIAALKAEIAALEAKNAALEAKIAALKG

[37] = biological target: T37, 4H605-AA; settings: mean of both orientations
T37 chain: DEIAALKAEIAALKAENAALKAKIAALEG

[38] = biological target: T38, 4H678-AA; settings: mean of both orientations
T38 chain: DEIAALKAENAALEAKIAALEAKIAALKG

[39] = biological target: T39, 4H717-AA; settings: mean of both orientations
T39 chain: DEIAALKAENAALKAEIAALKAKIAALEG

[40] = biological target: T40, 4H780-AA; settings: mean of both orientations
T40 chain: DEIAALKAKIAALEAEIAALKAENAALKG

[41] = biological target: T41, 4H794-AA; settings: mean of both orientations
T41 chain: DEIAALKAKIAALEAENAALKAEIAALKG

[42] = biological target: T42, 4H881-AA; settings: mean of both orientations
T42 chain: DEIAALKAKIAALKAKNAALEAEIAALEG

[43] = biological target: T43, 4H906-AA; settings: mean of both orientations
T43 chain: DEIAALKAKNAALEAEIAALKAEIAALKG

[44] = biological target: T44, 4H993-AA; settings: mean of both orientations
T44 chain: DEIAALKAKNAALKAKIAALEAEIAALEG

interaction score [1]: 2.39
interaction score [2]: -0.897
interaction score [3]: -1.57
interaction score [4]: -0.999
interaction score [5]: -1.82
interaction score [6]: -0.932
interaction score [7]: -1.87
interaction score [8]: -1.95
interaction score [9]: -1.49
interaction score [10]: -0.706
interaction score [11]: -2.07
interaction score [12]: -1.47
interaction score [13]: -0.963
interaction score [14]: -1.46
interaction score [15]: -1.33
interaction score [16]: -1.23
interaction score [17]: -1.42
interaction score [18]: -1.5
interaction score [19]: -1.16
interaction score [20]: -1.81
interaction score [21]: -1.16
interaction score [22]: -0.658
interaction score [23]: -1.74
interaction score [24]: -1.42
interaction score [25]: -1.41
interaction score [26]: -1.29
interaction score [27]: -0.846
interaction score [28]: -1.17
interaction score [29]: -0.519
interaction score [30]: -0.763
interaction score [31]: -0.519
interaction score [32]: -1.8
interaction score [33]: -1.27
interaction score [34]: -1.23
interaction score [35]: -1.07
interaction score [36]: -1.41
interaction score [37]: -1.56
interaction score [38]: -1.1
interaction score [39]: -0.951
interaction score [40]: -1.3
interaction score [41]: -1.68
interaction score [42]: -1.46
interaction score [43]: -1.91
interaction score [44]: -1.52
B1: 4H1636-AA (peptide)
chain: DENAALKAEIAALKAKIAALEAENAALKG
